According to patent US20150344570A1 (published 2015):

B1: GpH7-A5/GpH7-B3 variant E333_16H/GpL16-k0 (antibody, human IgG1, kappa)
heavy 1: not shown
heavy 2: not shown
light: DIVMTQSPLSLPVTPGEPASISCQASESLVHSNRNTYLHWYLQKPGQSPQLLIYKVSNRFSGVPDRFSGSGSGTDFTLKISRVEAEDVGVYYCSQNTHVPPTFGQGTKVEIERTVAAPSVFIFPPSDEQLKSGTASVVCLLNNFYPREAKVQWKVDNALQSGNSQESVTEQDSKDSTYSLSSTLTLSKADYEKHKVYACEVTHQGLSSPVTKSFNRGEC
notes: also called He Ab E333_16H
B2: GpH7-A5/GpH7-B3 variant K334_12R/GpL16-k0 (antibody, human IgG1, kappa)
heavy 1: not shown
heavy 2: not shown
light: B1 light
notes: also called He Ab K334_12R
B3: GpH7-A5/GpH7-B3 variant L234_04F/GpL16-k0 (antibody, human IgG1, kappa)
heavy 1: not shown
heavy 2: not shown
light: B1 light
notes: also called He Ab L234_04F
B4: GpH7-A5/GpH7-B3 variant L328_14T/GpL16-k0 (antibody, human IgG1, kappa)
heavy 1: not shown
heavy 2: not shown
light: B1 light
notes: also called He Ab L328_14T
B5: GpH7-A5/GpH7-B3 variant I336_10E/GpL16-k0 (antibody, human IgG1, kappa)
heavy 1: not shown
heavy 2: not shown
light: B1 light
notes: also called He Ab I336_10E
B6: GpH7-A5/GpH7-B3 variant P238_04F/GpL16-k0 (antibody, human IgG1, kappa)
heavy 1: not shown
heavy 2: not shown
light: B1 light
notes: also called He Ab P238_04F
B7: GpH7-A5/GpH7-B3 variant P238_15Y/GpL16-k0 (antibody, human IgG1, kappa)
heavy 1: not shown
heavy 2: not shown
light: B1 light
notes: also called He Ab P238_15Y
B8: GpH7-A5/GpH7-B3 variant P238_08L/GpL16-k0 (antibody, human IgG1, kappa)
heavy 1: not shown
heavy 2: not shown
light: B1 light
notes: also called He Ab P238_08L
B9: GpH7-A5/GpH7-B3 variant K334_06M/GpL16-k0 (antibody, human IgG1, kappa)
heavy 1: not shown
heavy 2: not shown
light: B1 light
notes: also called He Ab K334_06M
B10: GpH7-A5/GpH7-B3 variant L328_20W/GpL16-k0 (antibody, human IgG1, kappa)
heavy 1: not shown
heavy 2: not shown
light: B1 light
notes: also called He Ab L328_20W
B11: GpH7-A5/GpH7-B3 variant H268_12R/GpL16-k0 (antibody, human IgG1, kappa)
heavy 1: not shown
heavy 2: not shown
light: B1 light
notes: also called He Ab H268_12R
B12: GpH7-A5/GpH7-B3 variant K326_12R/GpL16-k0 (antibody, human IgG1, kappa)
heavy 1: not shown
heavy 2: not shown
light: B1 light
notes: also called He Ab K326_12R
B13: GpH7-A5/GpH7-B3 variant P238_03V/GpL16-k0 (antibody, human IgG1, kappa)
heavy 1: not shown
heavy 2: not shown
light: B1 light
notes: also called He Ab P238_03V
B14: GpH7-A5/GpH7-B3 variant I336_03V/GpL16-k0 (antibody, human IgG1, kappa)
heavy 1: not shown
heavy 2: not shown
light: B1 light
notes: also called He Ab I336_03V
B15: GpH7-A5/GpH7-B3 variant L234_10E/GpL16-k0 (antibody, human IgG1, kappa)
heavy 1: not shown
heavy 2: not shown
light: B1 light
notes: also called He Ab L234_10E
B16: GpH7-A5/GpH7-B3 variant K334_10E/GpL16-k0 (antibody, human IgG1, kappa)
heavy 1: not shown
heavy 2: not shown
light: B1 light
notes: also called He Ab K334_10E
B17: GpH7-A5/GpH7-B3 variant I336_04F/GpL16-k0 (antibody, human IgG1, kappa)
heavy 1: not shown
heavy 2: not shown
light: B1 light
notes: also called He Ab I336_04F
B18: GpH7-A5/GpH7-B3 variant H268_08L/GpL16-k0 (antibody, human IgG1, kappa)
heavy 1: not shown
heavy 2: not shown
light: B1 light
notes: also called He Ab H268_08L
B19: GpH7-A5/GpH7-B3 variant H268_20W/GpL16-k0 (antibody, human IgG1, kappa)
heavy 1: not shown
heavy 2: not shown
light: B1 light
notes: also called He Ab H268_20W
B20: GpH7-A5/GpH7-B3 variant K326_16H/GpL16-k0 (antibody, human IgG1, kappa)
heavy 1: not shown
heavy 2: not shown
light: B1 light
notes: also called He Ab K326_16H
B21: GpH7-A5/GpH7-B3 variant L328_19Q/GpL16-k0 (antibody, human IgG1, kappa)
heavy 1: not shown
heavy 2: not shown
light: B1 light
notes: also called He Ab L328_19Q
B22: GpH7-A5/GpH7-B3 variant L234_15Y/GpL16-k0 (antibody, human IgG1, kappa)
heavy 1: not shown
heavy 2: not shown
light: B1 light
notes: also called He Ab L234_15Y
B23: GpH7-A5/GpH7-B3 variant L234_07I/GpL16-k0 (antibody, human IgG1, kappa)
heavy 1: not shown
heavy 2: not shown
light: B1 light
notes: also called He Ab L234_07I
B24: GpH7-A5/GpH7-B3 variant L234_03V/GpL16-k0 (antibody, human IgG1, kappa)
heavy 1: not shown
heavy 2: not shown
light: B1 light
notes: also called He Ab L234_03V
B25: GpH7-A5/GpH7-B3 variant H268_02A/GpL16-k0 (antibody, human IgG1, kappa)
heavy 1: not shown
heavy 2: not shown
light: B1 light
notes: also called He Ab H268_02A
B26: GpH7-A5/GpH7-B3 variant I336_18N/GpL16-k0 (antibody, human IgG1, kappa)
heavy 1: not shown
heavy 2: not shown
light: B1 light
notes: also called He Ab I336_18N
B27: GpH7-A5/GpH7-B3 variant K326_14T/GpL16-k0 (antibody, human IgG1, kappa)
heavy 1: not shown
heavy 2: not shown
light: B1 light
notes: also called He Ab K326_14T
B28: GpH7-A5/GpH7-B3 variant H268_07I/GpL16-k0 (antibody, human IgG1, kappa)
heavy 1: not shown
heavy 2: not shown
light: B1 light
notes: also called He Ab H268_07I
B29: GpH7-A5/GpH7-B3 variant K326_15Y/GpL16-k0 (antibody, human IgG1, kappa)
heavy 1: not shown
heavy 2: not shown
light: B1 light
notes: also called He Ab K326_15Y
B30: GpH7-A5/GpH7-B3 variant I332_12R/GpL16-k0 (antibody, human IgG1, kappa)
heavy 1: not shown
heavy 2: not shown
light: B1 light
notes: also called He Ab I332_12R
B31: GpH7-A5/GpH7-B3 variant P238_10E/GpL16-k0 (antibody, human IgG1, kappa)
heavy 1: not shown
heavy 2: not shown
light: B1 light
notes: also called He Ab P238_10E
B32: GpH7-A5/GpH7-B3 variant G236_02A/GpL16-k0 (antibody, human IgG1, kappa)
heavy 1: not shown
heavy 2: not shown
light: B1 light
notes: also called He Ab G236_02A
B33: GpH7-A5/GpH7-B3 variant H268_14T/GpL16-k0 (antibody, human IgG1, kappa)
heavy 1: not shown
heavy 2: not shown
light: B1 light
notes: also called He Ab H268_14T
B34: GpH7-A5/GpH7-B3 variant H268_05P/GpL16-k0 (antibody, human IgG1, kappa)
heavy 1: not shown
heavy 2: not shown
light: B1 light
notes: also called He Ab H268_05P
B35: GpH7-A5/GpH7-B3 variant L234_06M/GpL16-k0 (antibody, human IgG1, kappa)
heavy 1: not shown
heavy 2: not shown
light: B1 light
notes: also called He Ab L234_06M
B36: GpH7-A5/GpH7-B3 variant L328_10E/GpL16-k0 (antibody, human IgG1, kappa)
heavy 1: not shown
heavy 2: not shown
light: B1 light
notes: also called He Ab L328_10E
B37: GpH7-A5/GpH7-B3 variant I336_01G/GpL16-k0 (antibody, human IgG1, kappa)
heavy 1: not shown
heavy 2: not shown
light: B1 light
notes: also called He Ab I336_01G
B38: GpH7-A5/GpH7-B3 variant K326_18N/GpL16-k0 (antibody, human IgG1, kappa)
heavy 1: not shown
heavy 2: not shown
light: B1 light
notes: also called He Ab K326_18N
B39: GpH7-A5/GpH7-B3 variant L328_03V/GpL16-k0 (antibody, human IgG1, kappa)
heavy 1: not shown
heavy 2: not shown
light: B1 light
notes: also called He Ab L328_03V
B40: GpH7-A5/GpH7-B3 variant K334_20W/GpL16-k0 (antibody, human IgG1, kappa)
heavy 1: not shown
heavy 2: not shown
light: B1 light
notes: also called He Ab K334_20W
B41: GpH7-A5/GpH7-B3 variant G236_20W/GpL16-k0 (antibody, human IgG1, kappa)
heavy 1: not shown
heavy 2: not shown
light: B1 light
notes: also called He Ab G236_20W
B42: GpH7-A5/GpH7-B3 variant I336_06M/GpL16-k0 (antibody, human IgG1, kappa)
heavy 1: not shown
heavy 2: not shown
light: B1 light
notes: also called He Ab I336_06M
B43: GpH7-A5/GpH7-B3 variant P238_06M/GpL16-k0 (antibody, human IgG1, kappa)
heavy 1: not shown
heavy 2: not shown
light: B1 light
notes: also called He Ab P238_06M
B44: GpH7-A5/GpH7-B3 variant I336_02A/GpL16-k0 (antibody, human IgG1, kappa)
heavy 1: not shown
heavy 2: not shown
light: B1 light
notes: also called He Ab I336_02A

These binders were tested against T1, FcγRIa (human, UniProt P12314 16-292) (assay: SPR (Biacore); He Ab relative to HeCon Ab = 100).
T1 construct: extracellular domain; also called FcgRI; 1a
Protocol: Analysis of interaction between objective antibody and the FcγR was carried out using Biacore T100 (GE Healthcare). HBS-EP+ (GE Healthcare) was used as the running buffer, and the measurement temperature was set to 25° C. Chips produced by immobilizing the antigen peptide by the amine coupling method to a Series S Sencor Chip CM5 (GE Healthcare), or alternatively, chips produced by allowing preliminarily biotinylated antigen peptides to interact with and immobilize onto a Series S Sensor Chip SA (certified) (GE Healthcare) were used. Antibodies of interest were captured onto an antigen peptide-immobilized chip, and allowed to interact to each FcγR diluted with running buffer. To regenerate and repeatedly use the chip, the antibodies captured on the chip were washed off by reacting 10 mM glycine-HCl, pH 1.5.

T1 sequence (P12314 16-292): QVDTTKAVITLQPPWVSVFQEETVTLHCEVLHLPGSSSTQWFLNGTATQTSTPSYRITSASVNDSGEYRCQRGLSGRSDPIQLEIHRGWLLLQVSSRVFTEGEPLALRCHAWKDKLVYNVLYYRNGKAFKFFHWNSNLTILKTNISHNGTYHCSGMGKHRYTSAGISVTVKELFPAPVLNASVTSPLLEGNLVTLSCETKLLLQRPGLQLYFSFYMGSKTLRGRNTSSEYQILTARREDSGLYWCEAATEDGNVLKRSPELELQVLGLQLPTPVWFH

He/Con_1a | Binder
101 % of control | B1
104 % of control | B2
101 % of control | B3
100 % of control | B4
108 % of control | B5
101 % of control | B6
101 % of control | B7
101 % of control | B8
105 % of control | B9
103 % of control | B10
106 % of control | B11
100 % of control | B12
100 % of control | B13
105 % of control | B14
100 % of control | B15
110 % of control | B16
106 % of control | B17
107 % of control | B18
107 % of control | B19
103 % of control | B20
101 % of control | B21
100 % of control | B22

He/Con_1a | Binder
103 % of control | B23
104 % of control | B24
109 % of control | B25
108 % of control | B26
104 % of control | B27
108 % of control | B28
106 % of control | B29
100 % of control | B30
102 % of control | B31
100 % of control | B32
112 % of control | B33
109 % of control | B34
104 % of control | B35
101 % of control | B36
109 % of control | B37
105 % of control | B38
101 % of control | B39
106 % of control | B40
105 % of control | B41
108 % of control | B42
102 % of control | B43
106 % of control | B44
